Laboratory results reported in PMC11250841.

Experiments:
[1] = molecular target: T1, Thymic stromal lymphopoietin receptor (TSLPR) (human (endogenous in primary keratinocytes)) (UniProt Q9HC73)
T1 sequence: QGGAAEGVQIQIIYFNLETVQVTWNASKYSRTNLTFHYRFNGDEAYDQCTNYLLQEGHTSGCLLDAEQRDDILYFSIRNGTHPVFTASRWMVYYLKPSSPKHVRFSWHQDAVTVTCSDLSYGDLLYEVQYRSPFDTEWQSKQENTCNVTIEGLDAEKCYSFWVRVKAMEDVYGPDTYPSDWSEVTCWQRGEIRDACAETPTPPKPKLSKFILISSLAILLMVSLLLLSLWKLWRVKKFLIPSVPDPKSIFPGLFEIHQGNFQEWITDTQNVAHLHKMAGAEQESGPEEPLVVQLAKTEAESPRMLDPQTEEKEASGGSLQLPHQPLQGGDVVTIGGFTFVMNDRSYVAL

[2] = molecular target: T1, Thymic stromal lymphopoietin receptor (TSLPR) (human (endogenous in primary keratinocytes)); remark: listed apart in the source

- inhibition by the small molecule BP79 of TSLP-induced IL-4/IL-13 expression in primary human CD4+ T cells (ELISA, 36 h), dose-response, at 10 µM and 20 µM [1]: > 80%
- inhibition by the small molecule BP79 of TSLP-induced IL-4 release from HuT78 cells (ELISA, 36 h), concentration series up to 20 µM [2]: 60%
- inhibition by the small molecule BP79 of TSLP-induced IL-13 release from HuT78 cells (ELISA, 36 h), concentration series up to 20 µM [2]: 80%
Substance: Thymic stromal lymphopoietin (TSLP), human recombinant (from UniProt Q969D9 29-159) (ligand)
